± gives the uncertainty stated by the source.
Assay: protein stability index of a GFP-peptide fusion (yeast GPS) (PSI 1-4); higher = more stable; sorted into four equal gates, so the index is relative within each strain
Procedure, shortened: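 Plasmids in a pooled yeast library fused tiled 17-residue yeast protein peptides downstream of GFP and also expressed Cherry. Mid-log cultures grown without leucine were sorted into four equal gates by GFP/Cherry fluorescence ratio. Each gate's plasmids were PCR-amplified and Illumina-sequenced, and reads were matched to strains by barcodes. The protein stability index is derived by multiplying each gate's read frequency by its gate number and summing the results.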

Row | Sequence | protein stability index (pdr5∆) | protein stability index (san1∆) | protein stability index (ubr1∆) | protein stability index (doa10∆)
1 | NNPDMMIQPPQQGQNMS [ROX3] | 2.92 ± 0.12 | 3.05 ± 0.12 | 3.14 ± 0.14 | 
2 | NNSAPNNTNNANSSITP [YJL041W/NSP1] | 2.97 ± 0.11 | 2.73 ± 0.11 | 2.72 ± 0.11 | 3.01 ± 0.089
3 | NNSGNDNNNTTNNDSNN [MED2] | 3.27 ± 0.033 | 3.133 ± 0.023 | 3.092 ± 0.03 | 3.13 ± 0.035
4 | NNTVDPGFDEFQLIDMK [CSI1] | 3.12 ± 0.062 | 3.31 ± 0.038 | 3.21 ± 0.041 | 3.18 ± 0.064
5 | NNVAYGKKRFRVVTVDG [SMC4] | 2.1 ± 0.13 | 1.78 ± 0.13 | 1.83 ± 0.069 | 1.93 ± 0.11
6 | NPEEVEQVAEEAAAAEE [RPS0B] | 3.03 ± 0.11 | 2.95 ± 0.12 | 3.26 ± 0.071 | 3.07 ± 0.092
7 | NPYNTRSNKIKVVKTPG [RPL34A] | 1.93 ± 0.045 | 2.16 ± 0.08 | 2.15 ± 0.039 | 1.98 ± 0.065
8 | NQFLKIKKKRKELFEKT [SMC1] | 3 ± 0.11 | 2.96 ± 0.12 | 3.29 ± 0.16 | 3.06 ± 0.15
9 | NQIPVTEHSKVTRFDEK [SRB6] | 3.02 ± 0.049 | 2.86 ± 0.052 | 2.87 ± 0.048 | 2.28 ± 0.05
10 | NQLLAALVAYTPTDVIG [RRP6] | 1.39 ± 0.048 | 1.25 ± 0.072 | 1.24 ± 0.032 | 1.66 ± 0.045
11 | NQNICTSVTRRSPVFAL [GRR1] | 1.6 ± 0.037 | 1.5 ± 0.058 | 1.74 ± 0.031 | 1.43 ± 0.039
12 | NQQQQNQQPQQQQQQQQ [SWI1] | 2.93 ± 0.037 | 2.88 ± 0.03 | 2.83 ± 0.032 | 3.06 ± 0.049
13 | NQSNLNGGNNTQQPGTN [SNF2] | 3.1 ± 0.075 | 3.08 ± 0.062 | 3.04 ± 0.056 | 2.76 ± 0.073
14 | NRAMEYDALLSINVHSN [RET1] | 2.41 ± 0.064 | 2.29 ± 0.07 | 2.68 ± 0.045 | 2.58 ± 0.061
15 | NRLLPNLPEEERKQIHE [GRR1] | 1.41 ± 0.079 | 1.71 ± 0.15 | 2.59 ± 0.13 | 1.26 ± 0.14
16 | NRSNDALIKFMEYHISN [FAS2] | 2.55 ± 0.078 | 2.96 ± 0.084 | 2.45 ± 0.057 | 2.93 ± 0.074
17 | NSAIIQNLRKELLIYKK [YIL149C/MLP2] | 2.6 ± 0.11 | 3.23 ± 0.078 | 3.14 ± 0.053 | 3.14 ± 0.084
18 | NSASSAPTPAAPGASVP [SWI1] | 3.16 ± 0.056 | 3.21 ± 0.057 | 3.03 ± 0.055 | 3.04 ± 0.063
19 | NSDLEFNTFWDEKGNEI [ARP9] | 3.25 ± 0.12 | 3.31 ± 0.12 | 3.34 ± 0.077 | 3.41 ± 0.08
20 | NSISDFLGEQVNEPTKN [RPN1] | 3.15 ± 0.13 | 3.34 ± 0.1 | 3.18 ± 0.091 | 3.32 ± 0.12
21 | NSISSQPASYHSVQETN [SSN2] | 2.54 ± 0.058 | 2.88 ± 0.068 | 2.69 ± 0.052 | 2.22 ± 0.049
22 | NSIYCPTQTVAELDLMS [RPN6] | 1.72 ± 0.071 | 1.39 ± 0.11 | 1.53 ± 0.074 | 2.55 ± 0.071

Row | Sequence | protein stability index (pdr5∆) | protein stability index (san1∆) | protein stability index (ubr1∆) | protein stability index (doa10∆)
23 | NSKPEKSSDSNDSNPSF [YLR335W/NUP2] | 2.62 ± 0.064 | 2.25 ± 0.061 | 2.76 ± 0.036 | 2.47 ± 0.056
24 | NSQERVQDLGSAISVTN [SIR2] | 3.11 ± 0.11 | 3.01 ± 0.092 | 3.25 ± 0.19 | 2.45 ± 0.16
25 | NSRNAIRKLVKNGTIVK [RPL19A] | 2.9 ± 0.063 | 2.89 ± 0.057 | 2.79 ± 0.066 | 2.84 ± 0.07
26 | NSSKYYINEKESSYTEV [SMC4] | 2.38 ± 0.1 | 2.43 ± 0.12 | 1.89 ± 0.11 | 3.2 ± 0.22
27 | NSSNYFGELQFAFLNAM [AAR2] | 2.94 ± 0.071 | 2.69 ± 0.071 | 2.89 ± 0.054 | 2.86 ± 0.088
28 | NSSRFSDPMLQRTATLC [YCS4] | 2.98 ± 0.093 | 3.21 ± 0.093 | 3.02 ± 0.078 | 2.81 ± 0.12
29 | NSSTSSTSNTPSPPNVI [YDL088C/ASM4] | 2.88 ± 0.045 | 2.7 ± 0.052 | 3.06 ± 0.043 | 2.88 ± 0.05
30 | NSTGHSSNTNNNTNNNN [SWI1] | 3.26 ± 0.066 | 3.17 ± 0.054 | 3.33 ± 0.063 | 3.48 ± 0.069
31 | NTAAALVSLLDENDSKK [YAR002W/NUP60] | 2.95 ± 0.12 | 3.01 ± 0.087 | 3.01 ± 0.099 | 3.13 ± 0.097
32 | NTAPGLGNTVSTQPSFA [YGR119C/NUP57] | 2.96 ± 0.079 | 2.9 ± 0.098 | 3.04 ± 0.056 | 3.04 ± 0.11
33 | NTDLKDIIQGNPLMYSG [PCI8] | 3.13 ± 0.085 | 3.21 ± 0.11 | 3.2 ± 0.086 | 2.84 ± 0.051
34 | NTIRQNVTSSGDHNKLR [YML103C/NUP188] | 3.04 ± 0.16 | 3.21 ± 0.075 | 2.98 ± 0.097 | 3.12 ± 0.17
35 | NTLVRPNGTKKAYVRLT [RPL25] |  | 3.03 ± 0.17 | 3.35 ± 0.15 | 
36 | NTSAKNKNGENKKIGKR [SIR4] | 3.19 ± 0.14 | 3.03 ± 0.21 |  | 3.02 ± 0.27
37 | NTSESLLVDIQKYNQIQ [SMC2] | 1.84 ± 0.066 | 1.66 ± 0.15 | 1.68 ± 0.048 | 1.71 ± 0.07
38 | NTSFSFTKPPANETDKR [YOR098C/NUP1] | 3.11 ± 0.049 | 3.07 ± 0.046 | 3.15 ± 0.045 | 3.08 ± 0.075
39 | NTTQDNGGDKELEMIGG [YCS4] | 3.06 ± 0.17 | 2.46 ± 0.2 | 3.26 ± 0.23 | 3.26 ± 0.17
40 | NTTTYKSRPDRPKPVSP [SNF5] | 3.12 ± 0.05 | 3 ± 0.047 | 2.97 ± 0.042 | 3.09 ± 0.045
41 | NVAKNMKTPSLTVYLEP [RPO21] | 2.86 ± 0.085 | 2.94 ± 0.056 | 3 ± 0.1 | 3.07 ± 0.1
42 | NVEPTENAYKSENAPSA [YAR002W/NUP60] | 3.02 ± 0.12 | 2.29 ± 0.16 | 3.03 ± 0.12 | 2.81 ± 0.094
43 | NVFHGLCAGANNPKIQT [IRR1] | 1.97 ± 0.077 | 1.48 ± 0.086 | 1.56 ± 0.073 | 1.59 ± 0.062

From the supplement of paper PMC9732359
